# In the supplement of paper PMC10567573:
# B1: TRIM63 (parent)
# chain: QRITQEQEKKLSFIEALIQQYQEQ
# Variants of: B1
# Test: protein stability index of a GFP-peptide fusion (GPS, HEK-293T) (PSI 1-6); higher = more stable
# Settings: c terminus: a fixed tail appended
# 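Note: lentivirally expressed fusions sorted by FACS into six bins by GFP to DsRed ratio, PSI derived from sequencing read proportions per bin multiplied by bin number.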
row,Variant,protein stability index
1,QRITHEQEKKLSFIEALIQQYQEQ [Q5H],2.05
2,QRITQEQEKHLSFIEALIQQYQEQ [K10H],2.7
3,QRITQEQEKTLSFIEALIQQYQEQ [K10T],2.2
4,QRITQEQEKWLSFIEALIQQYQEQ [K10W],2.05
5,QRITQEQEKNLSFIEALIQQYQEQ [K10N],3
6,QRITQEQEKYLSFIEALIQQYQEQ [K10Y],1.73
7,QRITQEQEKILSFIEALIQQYQEQ [K10I],2.57
8,QRITQEQEKKLSFIEALIQQLQEQ [Y21L],1.6
9,QRITQEQEKKLSFIEALIQQVQEQ [Y21V],2.32
10,QRITQEQEKKLSFIEALIQQFQEQ [Y21F],1.76
11,QRITQEQEKKLSFIEALIQQKQEQ [Y21K],3.8
12,QRITQEQEKKLSFIEALIQQQQEQ [Y21Q],2.75
13,QRITQEQEKKLSFIEALIQQWQEQ [Y21W],1.8
14,QRITQEQEKKLSFIEALIQQHQEQ [Y21H],2.55
15,QRITQEQEKKLSFIEALIQQAQEQ [Y21A],3.38
16,QRIWQEQEKKLSFIEALIQQYQEQ [T4W],1.71
17,QRICQEQEKKLSFIEALIQQYQEQ [T4C],2.1
18,QRIRQEQEKKLSFIEALIQQYQEQ [T4R],2.79
19,QRIIQEQEKKLSFIEALIQQYQEQ [T4I],2.55
20,QRIFQEQEKKLSFIEALIQQYQEQ [T4F],2.2
21,QRIMQEQEKKLSFIEALIQQYQEQ [T4M],2.7
22,QRIHQEQEKKLSFIEALIQQYQEQ [T4H],1.8
23,QRIQQEQEKKLSFIEALIQQYQEQ [T4Q],2.89
24,QRITQEQEKKTSFIEALIQQYQEQ [L11T],2.54

row,Variant,protein stability index
1,QRITQEQEKKCSFIEALIQQYQEQ [L11C],2.35
2,QRITQEQEKKFSFIEALIQQYQEQ [L11F],1.87
3,QRITQEQEKKDSFIEALIQQYQEQ [L11D],3.94
4,QRITQEQEKKNSFIEALIQQYQEQ [L11N],2.79
5,QRITQEQEKKGSFIEALIQQYQEQ [L11G],2.53
6,QRITQEQEKKASFIEALIQQYQEQ [L11A],3.13
7,MRITQEQEKKLSFIEALIQQYQEQ [Q1M],2.36
8,TRITQEQEKKLSFIEALIQQYQEQ [Q1T],2.19
9,HRITQEQEKKLSFIEALIQQYQEQ [Q1H],2.84
10,SRITQEQEKKLSFIEALIQQYQEQ [Q1S],2.23
11,YRITQEQEKKLSFIEALIQQYQEQ [Q1Y],1.95
12,CRITQEQEKKLSFIEALIQQYQEQ [Q1C],2.11
13,KRITQEQEKKLSFIEALIQQYQEQ [Q1K],2.17
14,RRITQEQEKKLSFIEALIQQYQEQ [Q1R],2.16
15,QRITQEQEKKLSFIEALIQQYKEQ [Q22K],2.03
16,QRITQEQEKKLSFIEALIQQYSEQ [Q22S],2.41
17,QRITQEQEKKLSFIEALIQQYHEQ [Q22H],2.52
18,QRITQEQEKKLSFIEALIQQYREQ [Q22R],2.42
19,QRITQEQEKKLSFIEALIQQYAEQ [Q22A],2.36
20,QRITQEQEKKLSFIEALIQQYYEQ [Q22Y],2.62
21,QRITQEQEKKLSFIEALIQQYCEQ [Q22C],2.48
22,QRITQEQEKKLSFIEALIQQYPEQ [Q22P],3.12
23,QRITQEQEKKLSFIEALIQQYNEQ [Q22N],2.79
24,QRITQEQEKKLSFIEALIQQYIEQ [Q22I],1.35

row,Variant,protein stability index
1,QRITQEQEKKLSFIEALICQYQEQ [Q19C],2.6
2,QRITQEQEKKLSFIEALIIQYQEQ [Q19I],2.73
3,QRITQEQEKKLSFIEALIRQYQEQ [Q19R],1.38
4,QRITQEQEKKLSFIEALINQYQEQ [Q19N],2.25
5,QRITQEQEKKLSFIEALIGQYQEQ [Q19G],2.51
6,QRITQEQEKKLSFIEALIPQYQEQ [Q19P],3.19
7,QRITQEQEKKLSFIEALIKQYQEQ [Q19K],2.48
8,QRITQEQEKKLSFIEALIWQYQEQ [Q19W],2.62
9,QRITQEQKKKLSFIEALIQQYQEQ [E8K],2.12
10,QRITQEQCKKLSFIEALIQQYQEQ [E8C],2.09
11,QRITQEQAKKLSFIEALIQQYQEQ [E8A],2.18
12,QRITQEQFKKLSFIEALIQQYQEQ [E8F],2.03
13,QRITQEQHKKLSFIEALIQQYQEQ [E8H],1.75
14,QRITQEQNKKLSFIEALIQQYQEQ [E8N],1.97
15,QRITQEQMKKLSFIEALIQQYQEQ [E8M],1.62
16,QRITQEHEKKLSFIEALIQQYQEQ [Q7H],2.32
17,QRITQEVEKKLSFIEALIQQYQEQ [Q7V],3.28
18,QRITQEKEKKLSFIEALIQQYQEQ [Q7K],1.96
19,QRITQEPEKKLSFIEALIQQYQEQ [Q7P],2.31
20,QRITQECEKKLSFIEALIQQYQEQ [Q7C],2.83
21,QRITQEDEKKLSFIEALIQQYQEQ [Q7D],3.02
22,QRITQEMEKKLSFIEALIQQYQEQ [Q7M],2.46
23,QRITQELEKKLSFIEALIQQYQEQ [Q7L],3.44
24,QRITQEIEKKLSFIEALIQQYQEQ [Q7I],4.42

row,Variant,protein stability index
1,QRITQEWEKKLSFIEALIQQYQEQ [Q7W],3.76
2,QRRTQEQEKKLSFIEALIQQYQEQ [I3R],2.76
3,QRATQEQEKKLSFIEALIQQYQEQ [I3A],2.37
4,QRQTQEQEKKLSFIEALIQQYQEQ [I3Q],2.33
5,QRFTQEQEKKLSFIEALIQQYQEQ [I3F],2.61
6,QRMTQEQEKKLSFIEALIQQYQEQ [I3M],1.83
7,QRVTQEQEKKLSFIEALIQQYQEQ [I3V],2.56
8,QRGTQEQEKKLSFIEALIQQYQEQ [I3G],2.31
9,QRITQEQEKKLSFIEALIQQYQGQ [E23G],2.57
10,QRITQEQEKKLSFIEALIQQYQYQ [E23Y],1.99
11,QRITQEQEKKLSFIEALIQQYQTQ [E23T],1.94
12,QRITQEQEKKLSFIEALIQQYQSQ [E23S],2
13,QRITQEQEKKLSFIEALIQQYQWQ [E23W],2.1
14,QRITQEQEKKLSFIEALIQQYQFQ [E23F],2.01
15,QRITQEQEKKLSFIEALIQQYQPQ [E23P],1.95
16,QRITQEQEKKLSFIEALIQQYQKQ [E23K],2.4
17,QRITQEQEKKLSFIEALIQQYQCQ [E23C],2.37
18,QRITQEQEKKLSFIEALIQQYQNQ [E23N],1.9
19,QRITQEQEKKLSFIEALIQQYQQQ [E23Q],2.18
20,QRITQEQEKKLSFIEALIQQYQHQ [E23H],2.14
21,QRITQEQEKKLSFIEALIQQYQRQ [E23R],1.97
22,QRITQEQEKKLSFIEALIQQYQAQ [E23A],1.96
